The record followed here is patent publication US20030180746, “Polymorphism detection and separation” (published 2003).

Data set [1] has as its target T1, RecA (Escherichia coli, UniProt P0A7G6 P0A7G6:2-353). Nature of the data set: EMSA; OligoA/OligoB 70-mer duplex target; double D-loop with OligoI or LNA OligoN; ATP-gamma-S, Mg acetate, 37 C. The procedure: (§1) We then add double-stranded nucleic acid target, which is generally ³²P-end-labeled using T4 polynucleotide kinase to facilitate detection of the complex, at a concentration of approximately 20 nM and 10 mM magnesium acetate to a final volume of 10 μl. We incubate this reaction for 10 minutes at 37° C. to allow for synapsis between to the incoming oligonucleotide and the target nucleic acid molecule. We then add the second or “annealing” oligonucleotide in 1 μl to a concentration of 640 nM (calculated for the original 10 μl reaction volume) and incubate for 10 minutes at 37° C. to allow the second oligonucleotide to anneal to the target nucleic acid. We then denature the RecA bound to the oligonucleotide:target complex by cooling the reaction to about 4° C. in an ice bath and adding 1 μl of 10% SDS. The samples are then used immediately or stored at −20° C.
Oligonucleotides used in this example. We employ the protocol described in Example 1 to form double D-loops between two DNA oligonucleotides and linear, duplex target DNA. The target duplex DNA is composed of two linear 70-mer oligonucleotides with sequence complementary to each other. The sequence of the first target strand, designated “OligoA”, is: 5′-[…]-3′ (SEQ ID NO: 1) and the sequence of the second target strand, designated “OligoB”, is: 3′-[…]-5′ (SEQ ID NO: 2). […]

The target in data set [2] is T1, RecA. Nature of the data set: EMSA; OligoA/OligoB target, opposite strand; ATP-gamma-S, Mg2+, 37 C. How it is done:
as §1
Oligonucleotides used in this example. We use the OligoA/OligoB duplex as the target nucleic acid for these experiments. As the incoming oligonucleotide, we use either OligoC (SEQ ID NO: 3) or the complementary oligonucleotide which targets the opposite strand of the duplex target, designated “OligoD”, which has the sequence 5′-[…]-3′ (SEQ ID NO: 20).

Data set [3] has as its target T1, RecA. Nature of the data set: EMSA; Y-arm on OligoT/OligoU. How it is done: as §1
Oligonucleotides used in this example. We use the OligoT/OligoU duplex as the target nucleic acid for these experiments. We use incoming DNA oligonucleotides complementary over a range of lengths to the end of the duplex target as follows: OligoV is a 20-mer with the sequence 5′-[…]-3′ (SEQ ID NO: 10); OligoW is a 25-mer with the sequence 5′-[…]-3′ (SEQ ID NO: 11); OligoX is a 30-mer (SEQ ID NO: 8); OligoY is a 35-mer with the sequence 5′-[…]-3′ (SEQ ID NO: 12); OligoZ is a 40-mer with the sequence 5′-[…]-3′ (SEQ ID NO: 13); and Oligo1 is a 46-mer with the sequence 5′-[…]-3′ (SEQ ID NO: 14). We use annealing DNA oligonucleotides complementary to the end of the duplex target (and to the incoming oligonucleotides) over a range of lengths as follows: Oligo2 is a 20-mer with the sequence 5′-[…]-3′ (SEQ ID NO: 15); Oligo4 is a 25-mer with the sequence 5′-[…]-3′ (SEQ ID NO: 16); Oligo5 is a 30-mer with the sequence 5′-[…]-3′ (SEQ ID NO: 9); Oligo6 is a 35-mer with the sequence 5′-[…]-3′ (SEQ ID NO: 17); Oligo7 is a 40-mer with the sequence 5′-[…]-3′ (SEQ ID NO: 18); and Oligo8 is a 46-mer with the sequence 5′-[…]-3′ (SEQ ID NO: 19).
On the technique in general: In EMSA bound probe runs differently from free probe, usually more slowly.

In data set [4] the target is T1, RecA. Nature of the data set: EMSA; Y-arm on OligoT/OligoU; longer oligos more efficient. The procedure: as §1
Oligonucleotides used in this example. We use the OligoT/OligoU duplex as the target nucleic acid for these experiments. […]

Data set [5] deals with T1, RecA. Nature of the data set: EMSA; Hyg- PCR target, LNA annealing oligos. The following applies: label: 5'-Cy5. An excerpt: We also form double D-loops using a PCR product produced from a plasmid containing the a functional hygromycin resistance gene (Hyg⁺) or a hygromycin resistance gene containing a point mutation (Hyg⁻; FIG. 15; SEQ ID NO:______]) using primers AUR123f (5′-[…]-3′; SEQ ID NO: 45) and Hyg1560r (5′-[…]-3′; SEQ ID NO: 46). We follow the protocol described in this Example for the formation of double D-loops in the Kan⁻ PCR product using HygUDF/45G as the incoming oligonucleotide (5′-Cy™ 5-[…]-3′; SEQ ID NO: 47) and various annealing oligonucleotides as indicated in Table 2. We analyze the samples prepared by separating on a 2.5% agarose gel at 4° C. as described above.

In data set [6] the target is T1, RecA. Nature of the data set: EMSA; beta-tubulin PCR product; RecA, incoming and LNA annealing oligos all required. The settings on record: label: 5'-biotin.
The target in data set [7] is T1, RecA. Nature of the data set: EMSA; Y-arm on OligoT/OligoU duplex with Oligo5; almost quantitative; ATP-gamma-S, Mg2+, 37 C. How it is done: as §1
To test the formation of Y-arms under our assay conditions, we use a different target duplex DNA composed of two linear 67-mer oligonucleotides with sequence complementary to each other. The sequence of the first target strand, designated “OligoT”, is: 5′-[…]-3′ (SEQ ID NO: 6) and the sequence of the second target strand, designated “OligoU”, is: 3′-[…]-5′ (SEQ ID NO: 7). We use two oligonucleotides complementary to the end of the OligoT/OligoU linear target duplex in these Y-arm experiments. […]

In data set [8] the target is T1, RecA. Nature of the data set: EMSA; matched Hyg(rep) 8 kb plasmid target with matched PNA or LNA annealing oligo. The following applies: label: 5'-Cy5. The procedure:
The target in these experiments is one of two nonsupercoiled plasmids of about 8 kb, differing in a single nucleotide. The incoming oligonucleotides are 31-mer deoxyribonucleotides labeled at the 5′ terminus with either Cy5 or Cy3; the annealing oligonucleotides are 15-mer PNA oligonucleotides acetylated at the N terminus. Deproteinization is performed by adding SDS at either 37° C. or 45° C. to aliquots of the reaction mixture and incubating at the indicated temperature for various amounts of time, after which time the aliquots are removed and placed on dry ice.
Two gels are run separately, but scanned at the same time to allow a direct comparison. Results are shown in FIGS. 18A and 18B for the 37° C. deproteinization data only.

The target in data set [9] is T1, RecA. Nature of the data set: pulldown; Kan plasmid isolated from tet plasmid excess; PNA annealing oligo. The settings on record: label: 3'-BioTEG.

T1 sequence (P0A7G6 2-353, one chain of several): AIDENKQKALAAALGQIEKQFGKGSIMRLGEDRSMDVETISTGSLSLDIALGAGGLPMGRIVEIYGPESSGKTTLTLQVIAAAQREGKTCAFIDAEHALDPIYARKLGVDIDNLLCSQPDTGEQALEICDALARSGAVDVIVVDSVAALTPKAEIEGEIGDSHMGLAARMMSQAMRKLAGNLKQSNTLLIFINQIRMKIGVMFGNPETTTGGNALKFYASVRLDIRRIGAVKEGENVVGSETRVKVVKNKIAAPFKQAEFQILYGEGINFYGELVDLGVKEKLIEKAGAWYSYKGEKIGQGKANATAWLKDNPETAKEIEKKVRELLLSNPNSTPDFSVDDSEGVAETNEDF

With AGGCTATTCGGCTACGACTGGGCACAACAG (ssDNA) [OligoC incoming 30-mer], the binding result in [1] is “binds”.

As for CTGTTGTGCCCAGTCCTAGCCGAATAGCCT (ssDNA) [OligoD incoming 30-mer], the binding result in data set [2] was “binds”.

As to GCAGACTTCTCCTCAGGAGTCAGGTGCACCATGGT (ssDNA) [OligoY incoming 35-mer], the binding result in data set [3] is given as “binds”.

In the case of GCAGACTTCTCCTCAGGAGTCAGGTGCACCATGGTGTCTGTTTGAG (ssDNA) [Oligo1 incoming 46-mer], the binding result in [3] is reported as “binds”.

With GCAGACTTCTCCTCAGGAGT (ssDNA) [OligoV incoming 20-mer], in [4], the binding result is given as “binds”.

As to CGCAGCTATTTACCCGCAGGACCTATCCACGCCCTCCTACATCGA (ssDNA) [HygUDF/45G incoming], the binding result in [5] is “binds”.

As to GGCCTGAAGATGTCGGCCACCTTCATCGGCA (ssDNA) [betaTUBwt/31D/5'Bio], in [6], the binding result is on record as “binds”.

For the molecule GCAGACTTCTCCTCAGGAGTCAGGT (ssDNA) [OligoW incoming 25-mer], in data set [3], the binding result is on record as “binds”.

With GCAGACTTCTCCTCAGGAGTCAGGTGCACC (ssDNA) [OligoX incoming 30-mer], the binding result in data set [7] is given as “binds”.

Turning to ATTTACCCGCAGGACCTATCCACGCCCTCCT (ssDNA) [HYG(NT)D5Cy5/31C(rep)], the binding result in data set [8] is recorded as “binds”.

GCAGACTTCTCCTCAGGAGTCAGGTGCACCATGGTGTCTG (ssDNA) [OligoZ incoming 40-mer]: the binding result in [3] was “binds”.

Consider GAGGCTATTCGGCTATGACTGGGCACAACAG (ssDNA) [KAN/LDB/31t], for which, in data set [9], the binding result is recorded as “binds”.
